Source: paper PMC5913134, “The IL-33-PIN1-IRAK-M axis is critical for type 2 immunity in IL-33-induced allergic airway inflammation” (Nature Communications, 2018)

B1: IRAK-M[1–119]: recombinant IRAK-M residues 1–119 including the DD (protein, UniProt Q8K4B2 1-119, looked up, fragment)
chain: MAGRCGARGALSPQLLLFDLPPALLGELCGILDSCDGPLGWRGLAERLSNSWLDVRHIEKYVNQGKSGTRELLWSWAQKNKTIGDLLEVLQDMGHQRAIHLIINYGVSWTPSVQTHHEL
B2: GST-IRAK-M: purified GST-IRAK-M containing amino acids 1-120 (protein, UniProt Q8K4B2 1-120, looked up, fragment)
chain: MAGRCGARGALSPQLLLFDLPPALLGELCGILDSCDGPLGWRGLAERLSNSWLDVRHIEKYVNQGKSGTRELLWSWAQKNKTIGDLLEVLQDMGHQRAIHLIINYGVSWTPSVQTHHELP
modifications: GST tag

Experiments:
[1] = assay type: physicochemical
Source text: The IRAK-M[1–119] gene was encoded into the pMAL-c2X vector with N-terminal fusion partner MBP, separated by a Factor XA cleavage site. The R56D and Y61D mutations were achieved using this vector, a single primer (forward primer, with mutations underlined: 5’ […] 3’) and the BIO RAD-iProof High-Fidelity DNA Polymerase to generate expression plasmid pMAL-c2X encoding the MBP- IRAK-M[1-119:R56D,Y61D] fusion protein, with a Factor XA cut site between MBP and IRAK-M[1-119:R56D,Y61D]. To produce uniformly ^15N-labeled MBP-IRAK-M[1-119:R56D,Y61D] in E. coli, transformed cells were grown in M9 minimal media with ^15NH4Cl as the sole nitrogen source, and were induced at OD600 by adding 0.4 mM final concentration of IPTG at 25 °C for 20~22 h. Cells were harvested by centrifugation at 3500 g, the cell pellet was dissolved in IRAK-M wash buffer (20 mM Tris, 200 mM NaCl, 1 mM EDTA, and 0.2 mM TCEP, pH 7.4), and sonicated on ice. Cell debris was removed by centrifugation, the supernatant was incubated with 5 mL of Amylose Resin (BioLabs) pre-equilibrated with IRAK-M wash buffer. The column was washed with 4 bed volumes of IRAK-M wash buffer, and the fusion protein was eluted with 2 bed volumes of elution buffer (10 mM of Maltose added to IRAK-M wash buffer). […] IRAK-M[1-119:R56D,Y61D] concentration was measured by UV absorption at 280 nm (extinction coefficient = 25105 cm^-1 M^-1). […]

IRAK1 = test: In vitro phosphorylation by IRAK1 immunoprecipitated from IL-33 stimulated cells; assay type: biochemical; conditions: IRAK1 IPed from IL-33 stimulated cells, γP32 ATP, autoradiography
Source text: Suppl em enta ry Figur e 2.
Supplementary Figure 2. IRAK-M DD structure modeling analysis and phosphorylation by IRAK1.
(a) Overlaid 1H-15N HSQC spectra of the 15N-labeled Pin1 WW domain showing changes in chemical environment resulting from titration with the phosphorylated IRAK-M peptide. Overlaid spectra of apo (red) and increasing amounts of ligand (rainbow of colors, with purple as highest ligand concentration) show progressive peak shifts. (b) Interaction between IRAK-M DD and IRAK1 DD from Figure 3f. Cyan: IRAK1 DDs, Yellow: IRAK-M DD. (c) The aromatic residues interaction between IRAK-M DD and IRAK4 DD from Figure 3f. Green: IRAK4 DDs, Yellow: IRAK-M DD. (d) IRAK-M or its mutants as described, were expressed in 293 cells or 293 IRAK1null cells expressing the ST2 receptor and treated with IL-33. The phosphorylation is shown by the slow migrating bands. (e) WT or Pin KO cells were treated with IL-33 and IRAK1 phosphorylation was monitored at different time after stimulation. (f) DC2.4 cells were either treated or not with IL-33. IRAK1 was IP’d and incubated with GST-IRAK-M aa1-120 in the presence of ΓP32ATP.
The beads were washed and GST-IRAK-M was eluted and run for autoradiography. […]

Row | Molecule | solubility of cleaved protein [1] | phosphorylation by IRAK1 (IRAK1)
1 | B1 | precipitated under all conditions explored | –
2 | B2 | – | phosphorylated WT IRAK-M
